Measured values taken from IntAct's records for PubMed 16648845.

B1: Serine/threonine-protein kinase Nek2 (Homo sapiens), P51955 (parent)
chain: MPSRAEDYEVLYTIGTGSYGRCQKIRRKSDGKILVWKELDYGSMTEAEKQMLVSEVNLLRELKHPNIVRYYDRIIDRTNTTLYIVMEYCEGGDLASVITKGTKERQYLDEEFVLRVMTQLTLALKECHRRSDGGHTVLHRDLKPANVFLDGKQNVKLGDFGLARILNHDTSFAKTFVGTPYYMSPEQMNRMSYNEKSDIWSLGCLLYELCALMPPFTAFSQKELAGKIREGKFRRIPYRYSDELNEIITRMLNLKDYHRPSVEEILENPLIADLVADEQRRNLERRGRQLGEPEKSQDSSPVLSELKLKEIQLQERERALKAREERLEQKEQELCVRERLAEDKLARAENLLKNYSLLKERKFLSLASNPELLNLPSSVIKKKVHFSGESKENIMRSENSESQLTSKSKCKDLKKRLHAAQLRAQALSDIEKNYQLKSRQILGMR

Variants of: B1
Details: with cdc27_human CDC27, P30260
Chain of cdc27_human CDC27, P30260 (P30260 whole entry): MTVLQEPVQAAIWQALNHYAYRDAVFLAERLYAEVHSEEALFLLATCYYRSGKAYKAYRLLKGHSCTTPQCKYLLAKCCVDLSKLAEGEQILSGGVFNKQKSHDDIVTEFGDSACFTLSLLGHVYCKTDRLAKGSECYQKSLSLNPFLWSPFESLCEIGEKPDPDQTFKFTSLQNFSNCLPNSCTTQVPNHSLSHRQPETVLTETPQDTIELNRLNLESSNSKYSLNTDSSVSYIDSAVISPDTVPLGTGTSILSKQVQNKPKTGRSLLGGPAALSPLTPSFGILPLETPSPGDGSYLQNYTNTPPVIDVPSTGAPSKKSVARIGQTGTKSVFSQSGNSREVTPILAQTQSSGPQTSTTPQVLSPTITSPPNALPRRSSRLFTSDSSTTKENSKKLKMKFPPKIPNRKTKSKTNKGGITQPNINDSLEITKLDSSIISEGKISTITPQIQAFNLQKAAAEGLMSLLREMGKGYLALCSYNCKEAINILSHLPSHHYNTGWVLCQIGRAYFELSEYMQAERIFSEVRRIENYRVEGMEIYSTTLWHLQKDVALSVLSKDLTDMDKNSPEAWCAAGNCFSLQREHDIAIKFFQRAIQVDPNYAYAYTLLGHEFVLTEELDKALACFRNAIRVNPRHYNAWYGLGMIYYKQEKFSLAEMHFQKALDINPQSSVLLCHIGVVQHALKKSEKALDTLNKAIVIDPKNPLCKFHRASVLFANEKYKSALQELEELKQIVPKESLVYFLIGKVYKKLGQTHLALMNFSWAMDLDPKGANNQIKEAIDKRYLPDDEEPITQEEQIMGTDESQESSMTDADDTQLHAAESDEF

Variant	effect of a mutation on the interaction
MPSRAEDYEVLYTIGTGSYGRCQKIRRKSDGKILVWKELDYGSMTEAEKQMLVSEVNLLRELKHPNIVRYYDRIIDRTNTTLYIVMEYCEGGDLASVITKGTKERQYLDEEFVLRVMTQLTLALKECHRRSDGGHTVLHRDLKPANVFLDGKQNVKLGDFGLARILNHDTSFAKTFVGTPYYMSPEQMNRMSYNEKSDIWSLGCLLYELCALMPPFTAFSQKELAGKIREGKFRRIPYRYSDELNEIITRMLNLKDYHRPSVEEILENPLIADLVADEQRRNLERRGRQLGEPEKSQDSSPVLSELKLKEIQLQERERALKAREERLEQKEQELCVRERLAEDKLARAENLLKNYSLLKERKFLSLASNPELLNLPSSVIKKKVHFSGESAAAIMRSEASESQLTSKSKCKDLKKRLHAAQLRAQALSDIEKNYQLKSRQILGMR [K391A;E392A;N393A;N399A]	decreasing interaction
